What all share (assay): ITC; β16β17 at 25–50 μM in the cell titrated with 15–20 injections to 2–2.5 eq of α0α1; one-site binding model; PBS (50 mM sodium phosphate, 150 mM NaCl, pH 7.04), 25 °C; mutants only against the wild-type partner
Details in all cases: both partners purified

For assay [1], the target named is T1, β16β17 A24G (human, UniProt P11277 1898-2083, A2027G).
T1 construct: erythrocyte β-spectrin, human, residues 1898-2083 (β16β17); mutant of m2; also called A2027G; source: E. coli C41(DE3), purified (Ni2+ agarose, thrombin cleavage, gel filtration)
T1 sequence (looked up): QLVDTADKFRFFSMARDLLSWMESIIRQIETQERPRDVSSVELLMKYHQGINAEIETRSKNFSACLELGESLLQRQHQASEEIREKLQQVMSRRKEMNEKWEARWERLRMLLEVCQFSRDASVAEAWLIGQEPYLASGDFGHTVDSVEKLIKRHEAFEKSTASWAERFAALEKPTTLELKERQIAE

The target of assay [2] is T2, β16β17 D39G (human, UniProt P11277 1898-2083, D2042G).
T2 construct: erythrocyte β-spectrin, human, residues 1898-2083 (β16β17); mutant of m2; also called D2042G; source: E. coli C41(DE3), purified (Ni2+ agarose, thrombin cleavage, gel filtration)
T2 sequence (looked up): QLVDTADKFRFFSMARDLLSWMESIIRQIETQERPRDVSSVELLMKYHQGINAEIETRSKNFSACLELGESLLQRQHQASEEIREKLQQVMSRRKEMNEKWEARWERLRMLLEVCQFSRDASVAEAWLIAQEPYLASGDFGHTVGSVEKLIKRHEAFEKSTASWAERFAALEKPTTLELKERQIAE

The target of assay [3] is T3, β16β17 K53A (human, UniProt P11277 1898-2083, K2056A).
T3 construct: erythrocyte β-spectrin, human, residues 1898-2083 (β16β17); mutant of m2; also called K2056A; source: E. coli C41(DE3), purified (Ni2+ agarose, thrombin cleavage, gel filtration)
T3 sequence (looked up): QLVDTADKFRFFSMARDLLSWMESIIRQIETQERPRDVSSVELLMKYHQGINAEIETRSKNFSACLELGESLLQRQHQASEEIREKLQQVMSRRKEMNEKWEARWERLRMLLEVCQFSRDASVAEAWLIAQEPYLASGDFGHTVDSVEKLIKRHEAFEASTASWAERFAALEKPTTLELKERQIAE

For assay [4], the target named is T4, β16β17 K67A (human, UniProt P11277 1898-2083, K2070A).
T4 construct: erythrocyte β-spectrin, human, residues 1898-2083 (β16β17); mutant of m2; also called K2070A; source: E. coli C41(DE3), purified (Ni2+ agarose, thrombin cleavage, gel filtration)
T4 sequence (looked up): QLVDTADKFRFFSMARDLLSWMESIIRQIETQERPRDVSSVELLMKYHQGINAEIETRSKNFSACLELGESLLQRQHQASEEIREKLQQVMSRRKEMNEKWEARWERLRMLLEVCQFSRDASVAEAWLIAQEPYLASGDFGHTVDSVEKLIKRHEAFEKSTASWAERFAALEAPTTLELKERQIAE

In assay [5] the target is T5, β16β17 S16G (human, UniProt P11277 1898-2083, S2019G).
T5 construct: erythrocyte β-spectrin, human, residues 1898-2083 (β16β17); mutant of m2; also called S2019G; source: E. coli C41(DE3), purified (Ni2+ agarose, thrombin cleavage, gel filtration)
T5 sequence (looked up): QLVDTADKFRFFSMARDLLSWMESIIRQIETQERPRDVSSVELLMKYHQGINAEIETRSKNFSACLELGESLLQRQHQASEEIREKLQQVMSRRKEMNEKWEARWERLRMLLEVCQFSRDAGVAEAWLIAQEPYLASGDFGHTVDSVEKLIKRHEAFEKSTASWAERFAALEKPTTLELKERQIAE

In assay [6] the target is T6, β16β17 S57A (human, UniProt P11277 1898-2083, S2060A).
T6 construct: erythrocyte β-spectrin, human, residues 1898-2083 (β16β17); mutant of m2; also called S2060A; source: E. coli C41(DE3), purified (Ni2+ agarose, thrombin cleavage, gel filtration)
T6 sequence (looked up): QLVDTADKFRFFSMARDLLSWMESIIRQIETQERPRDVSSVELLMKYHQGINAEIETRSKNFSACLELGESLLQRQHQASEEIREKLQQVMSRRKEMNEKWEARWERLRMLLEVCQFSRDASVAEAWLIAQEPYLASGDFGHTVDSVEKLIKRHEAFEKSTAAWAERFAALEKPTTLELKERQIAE

B1: α0α1 (erythrocyte α-spectrin residues 2–163), wild type (domain or fragment, human, UniProt P02549 2-163, looked up)
chain: EQFPKETVVESSGPKVLETAEEIQERRQEVLTRYQSFKERVAERGQKLEDSYHLQVFKRDADDLGKWIMEKVNILTDKSYEDPTNIQGKYQKHQSLEAEVQTKSRLMSELEKTREERFTMGHSAHEETKAHIEELRHLWDLLLELTLEKGDQLLRALKFQQY
notes: synthetic gene (GenScript) in a modified pRSETA plasmid; also called α1α0; source: E. coli C41(DE3), purified (Ni2+ agarose, thrombin cleavage, gel filtration)
In the case of B1, the Ka in assay [1] turned out to be 242000 M⁻¹; in assay [2], 280000 M⁻¹; in assay [3], 1.5e+06 M⁻¹; in assay [4] it was 500000 M⁻¹; in assay [5], 360000 M⁻¹; in assay [6], 1.5e+06 M⁻¹.

Values taken from publication PMC9082959, “Mechanism of Assembly of the Non-Covalent Spectrin Tetramerization Domain from Intrinsically Disordered Partners” (Journal of molecular biology, 2013).
